Measured values as given in patent publication US9791436.

Biological target: SH3-peptide-tagged TVMV-inducible HCV-based signal transducers
Experiment: cell-based or functional assay

B1: SH3-H6-68-AP (protein)
chain: SGGSGAEYVRALFDFNGNDEEDLPFKKGDILRIRDKPEEQWWNAEDSEGKRGMIPVPYVEKYRPASASVSALIGGRGGSGGSGGSGGSGGSGGSSKALLKGVRDFNPISACVCLLENSSDGHSERLFGIGFGPYIIANQHLFRRNNGELTIKTMHGEFKVKNSTQLQMKPVEGRDIIVIKMAKDFPPFPQKLKFRQPTIKDRVCMVSTNFQQKSVSSLVSESSHIVHKEDTSFWQHWITTKDGQCGSPLVSIIDGNILGIHSLTHTTNGSNYFVEFPEKFVATYLDAADGWCKNWKFNADKISWGSFILWEDAPEDFMSGLVPRGVGREYVRFAPGSTHHHHHH
- induction ratio: 20 fold
